Data taken from publication PMC9482650, “Quantitative fragmentomics allow affinity mapping of interactomes” (Nature Communications, 2022).

How the values were obtained:
Assay in all cases: holdup assay
Parameters in all cases: key: below the threshold = too weak to quantify, mostly under pKd 3.1 to 4
MAGI2_4, Q86UL8 = target: MAGI2_4, Q86UL8
DLG1_1, Q12959 = target: DLG1_1, Q12959
GRIP1_7, Q9Y3R0 = target: T1, GRIP1_7, Q9Y3R0
T1 sequence (Q9Y3R0 999-1096, limits assumed, looked up): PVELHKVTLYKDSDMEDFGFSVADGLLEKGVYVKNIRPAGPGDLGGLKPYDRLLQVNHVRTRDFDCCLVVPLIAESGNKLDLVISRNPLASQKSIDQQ

APBA3_1, O96018 = target: T2, APBA3_1, O96018
T2 sequence (O96018 389-490, limits assumed, looked up): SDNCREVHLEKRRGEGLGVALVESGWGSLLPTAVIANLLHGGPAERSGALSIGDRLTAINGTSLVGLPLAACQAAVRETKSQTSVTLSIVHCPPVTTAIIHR

MPDZ_10, O75970 = target: T3, MPDZ_10, O75970
T3 sequence (O75970 1624-1722, limits assumed, looked up): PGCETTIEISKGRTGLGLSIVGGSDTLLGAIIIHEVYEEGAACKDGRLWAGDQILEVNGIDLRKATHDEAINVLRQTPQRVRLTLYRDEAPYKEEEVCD

NHERF4_4, Q86UT5 = target: NHERF4_4, Q86UT5
Chain of NHERF4_4, Q86UT5 (Q86UT5 464-550): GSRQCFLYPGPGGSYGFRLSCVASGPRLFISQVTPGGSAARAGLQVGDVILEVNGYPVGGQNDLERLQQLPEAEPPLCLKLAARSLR

PDZRN4_1, Q6ZMN7 = target: PDZRN4_1, Q6ZMN7
Chain of PDZRN4_1, Q6ZMN7 (Q6ZMN7 213-318): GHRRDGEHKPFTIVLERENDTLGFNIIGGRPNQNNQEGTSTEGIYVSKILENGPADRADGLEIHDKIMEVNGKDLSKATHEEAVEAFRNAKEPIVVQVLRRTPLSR

MAGI2_2, Q86UL8 = target: MAGI2_2, Q86UL8
Chain of MAGI2_2, Q86UL8 (Q86UL8 410-522): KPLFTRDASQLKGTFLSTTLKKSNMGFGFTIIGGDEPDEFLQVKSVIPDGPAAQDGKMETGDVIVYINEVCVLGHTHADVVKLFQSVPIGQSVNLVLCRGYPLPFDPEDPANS

Inadl_5, Q8NI35 = target: Inadl_5, Q8NI35
Chain of Inadl_5, Q8NI35 (Q8NI35 673-780): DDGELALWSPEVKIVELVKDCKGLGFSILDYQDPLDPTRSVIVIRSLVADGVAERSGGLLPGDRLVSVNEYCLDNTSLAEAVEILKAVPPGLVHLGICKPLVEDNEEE

DLG1_3, Q12959 = target: DLG1_3, Q12959
DLG1_2, Q12959 = target: DLG1_2, Q12959
TJP3_3, O95049 = target: T4, TJP3_3, O95049
T4 sequence (O95049 375-456, limits assumed, looked up): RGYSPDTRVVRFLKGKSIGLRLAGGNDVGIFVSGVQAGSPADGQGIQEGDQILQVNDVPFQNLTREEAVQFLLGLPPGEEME

SNTA1, Q13424 = target: T5, SNTA1, Q13424
T5 sequence (Q13424 82-180, limits assumed, looked up): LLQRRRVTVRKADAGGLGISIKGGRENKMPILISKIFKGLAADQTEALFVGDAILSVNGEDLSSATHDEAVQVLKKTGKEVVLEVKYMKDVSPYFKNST

RHPN1, Q8TCX5 = target: T6, RHPN1, Q8TCX5
T6 sequence (Q8TCX5 508-602, limits assumed, looked up): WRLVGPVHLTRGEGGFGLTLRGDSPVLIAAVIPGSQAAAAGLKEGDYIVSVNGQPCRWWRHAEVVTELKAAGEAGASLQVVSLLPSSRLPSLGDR

LNX1_3, Q8TBB1 = target: LNX1_3, Q8TBB1
Chain of LNX1_3, Q8TBB1 (Q8TBB1 500-596): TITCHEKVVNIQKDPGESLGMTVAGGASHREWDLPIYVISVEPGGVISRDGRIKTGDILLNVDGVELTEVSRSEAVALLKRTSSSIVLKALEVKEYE

PTPN13_1, Q12923 = target: T7, PTPN13_1, Q12923
T7 sequence (Q12923 1088-1188, limits assumed, looked up): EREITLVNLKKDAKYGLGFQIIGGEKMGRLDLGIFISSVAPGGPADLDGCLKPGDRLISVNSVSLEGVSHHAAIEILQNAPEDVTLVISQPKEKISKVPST

APBA2_1, Q99767 = target: T8, APBA2_1, Q99767
T8 sequence (Q99767 563-664, limits assumed, looked up): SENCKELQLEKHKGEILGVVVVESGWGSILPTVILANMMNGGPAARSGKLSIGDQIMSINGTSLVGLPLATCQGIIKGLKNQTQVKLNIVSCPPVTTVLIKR

MPDZ_12, O75970 = target: T9, MPDZ_12, O75970
T9 sequence (O75970 1857-1958, limits assumed, looked up): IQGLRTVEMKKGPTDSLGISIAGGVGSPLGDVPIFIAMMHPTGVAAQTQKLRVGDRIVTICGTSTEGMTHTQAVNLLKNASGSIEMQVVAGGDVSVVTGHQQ

MAGI1_2, Q96QZ7 = target: MAGI1_2, Q96QZ7
Chain of MAGI1_2, Q96QZ7 (Q96QZ7 456-580): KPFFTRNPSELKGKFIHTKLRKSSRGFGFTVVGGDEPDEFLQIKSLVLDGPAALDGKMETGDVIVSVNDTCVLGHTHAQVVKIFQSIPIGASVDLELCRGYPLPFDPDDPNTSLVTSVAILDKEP

CASK, O14936 = target: CASK, O14936
Chain of CASK, O14936 (O14936 487-570): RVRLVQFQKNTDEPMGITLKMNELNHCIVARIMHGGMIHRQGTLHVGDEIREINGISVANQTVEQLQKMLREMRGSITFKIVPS

DFNB31_2, Q9P202 = target: T10, DFNB31_2, Q9P202
T10 sequence (Q9P202 274-371, limits assumed, looked up): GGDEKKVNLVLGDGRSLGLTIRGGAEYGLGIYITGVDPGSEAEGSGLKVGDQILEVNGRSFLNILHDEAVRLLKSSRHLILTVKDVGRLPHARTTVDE

SYNJ2BP, P57105 = target: T11, SYNJ2BP, P57105
T11 sequence (P57105 8-110, limits assumed, looked up): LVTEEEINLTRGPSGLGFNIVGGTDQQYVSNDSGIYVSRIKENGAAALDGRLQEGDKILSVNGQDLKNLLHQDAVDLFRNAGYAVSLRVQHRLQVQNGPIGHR

GRIP2_7, Q9C0E4 = target: GRIP2_7, Q9C0E4
Chain of GRIP2_7, Q9C0E4 (Q9C0E4 934-1023): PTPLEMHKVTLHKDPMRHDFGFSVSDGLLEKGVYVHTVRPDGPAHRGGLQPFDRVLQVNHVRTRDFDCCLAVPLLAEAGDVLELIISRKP

NHERF3_1, Q5T2W1 = target: T12, NHERF3_1, Q5T2W1
T12 sequence (Q5T2W1 4-100, limits assumed, looked up): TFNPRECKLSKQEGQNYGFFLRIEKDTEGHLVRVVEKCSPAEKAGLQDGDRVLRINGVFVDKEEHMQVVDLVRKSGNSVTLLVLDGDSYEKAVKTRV

LRRC7, Q96NW7 = target: T13, LRRC7, Q96NW7
T13 sequence (Q96NW7 1440-1537, limits assumed, looked up): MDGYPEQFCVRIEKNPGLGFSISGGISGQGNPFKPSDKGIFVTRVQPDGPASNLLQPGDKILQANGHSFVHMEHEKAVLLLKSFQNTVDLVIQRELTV

[1] = plain residues with an end cap or a label only (N-terminal biotin on a linker: ado-ado)
[2] = plain residues with an end cap or a label only (N-terminal biotin on a linker: (peg)3)
[3] = plain residues with an end cap or a label only (N-terminal biotin on a linker: ahx)

Chain of MAGI2_4, Q86UL8 (Q86UL8 772-865): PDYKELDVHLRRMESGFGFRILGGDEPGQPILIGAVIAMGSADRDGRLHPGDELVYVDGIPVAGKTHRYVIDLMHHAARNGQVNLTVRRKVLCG

DPAESMESLV [PTPRG, P23470] was tested, and the pKd (MAGI2_4, Q86UL8; [1]) was 4.25, the pKd (DLG1_1, Q12959; [1]) was 4.45 and the pKd (GRIP1_7, Q9Y3R0; [1]) was “below the threshold”. The pKd (APBA3_1, O96018; [1]) was “below the threshold”, the pKd (MPDZ_10, O75970; [1]) was “below the threshold” and the pKd (NHERF4_4, Q86UT5; [1]) was 3.75. For the same binder, the pKd (PDZRN4_1, Q6ZMN7; [1]) was 3.72, the pKd (MAGI2_2, Q86UL8; [1]) was 4.24 and the pKd (Inadl_5, Q8NI35; [1]) was “below the threshold”. The pKd (DLG1_3, Q12959; [1]) was “below the threshold”, the pKd (DLG1_2, Q12959; [1]) was 5.03 and the pKd (TJP3_3, O95049; [1]) was “below the threshold”. The pKd (SNTA1, Q13424; [1]) was 4.46, the pKd (RHPN1, Q8TCX5; [1]) was 4.17 and the pKd (LNX1_3, Q8TBB1; [1]) was “below the threshold”. For the same binder, the pKd (PTPN13_1, Q12923; [1]) was “below the threshold”, the pKd (APBA2_1, Q99767; [1]) was “below the threshold” and the pKd (MPDZ_12, O75970; [1]) was “below the threshold”. For the same binder, the pKd (MAGI1_2, Q96QZ7; [1]) was 3.55, the pKd (CASK, O14936; [1]) was “below the threshold” and the pKd (DFNB31_2, Q9P202; [1]) was “below the threshold”. The pKd (SYNJ2BP, P57105; [1]) was 4.74, the pKd (GRIP2_7, Q9C0E4; [1]) was “below the threshold” and the pKd (NHERF3_1, Q5T2W1; [1]) was 4.7. For the same binder, the pKd (LRRC7, Q96NW7; [1]) was “below the threshold”.

For EIPAQSPTCV [FZD10, Q9ULW2], the pKd (MAGI2_4, Q86UL8; [1]) was 3.65, the pKd (DLG1_1, Q12959; [1]) was 3.85 and the pKd (GRIP1_7, Q9Y3R0; [1]) was 3.67. For the same binder, the pKd (APBA3_1, O96018; [1]) was 3.57, the pKd (MPDZ_10, O75970; [1]) was 3.89 and the pKd (NHERF4_4, Q86UT5; [1]) was “below the threshold”. For the same binder, the pKd (PDZRN4_1, Q6ZMN7; [1]) was 3.63, the pKd (MAGI2_2, Q86UL8; [1]) was 4.17 and the pKd (Inadl_5, Q8NI35; [1]) was “below the threshold”. The pKd (DLG1_3, Q12959; [1]) was 4, the pKd (DLG1_2, Q12959; [1]) was 3.86 and the pKd (TJP3_3, O95049; [1]) was 3.78. For the same binder, the pKd (SNTA1, Q13424; [1]) was 3.83, the pKd (RHPN1, Q8TCX5; [1]) was “below the threshold” and the pKd (LNX1_3, Q8TBB1; [1]) was “below the threshold”. For the same binder, the pKd (PTPN13_1, Q12923; [1]) was 3.72, the pKd (APBA2_1, Q99767; [1]) was “below the threshold” and the pKd (MPDZ_12, O75970; [1]) was “below the threshold”. The pKd (MAGI1_2, Q96QZ7; [1]) was 3.88, the pKd (CASK, O14936; [1]) was 3.59 and the pKd (DFNB31_2, Q9P202; [1]) was “below the threshold”. The pKd (SYNJ2BP, P57105; [1]) was 4.36, the pKd (GRIP2_7, Q9C0E4; [1]) was 3.7 and the pKd (NHERF3_1, Q5T2W1; [1]) was “below the threshold”. For the same binder, the pKd (LRRC7, Q96NW7; [1]) was “below the threshold”.

In the case of RYEDTTLVEDTVL [WNV-NS5, Q9Q6P4], the pKd (MAGI2_4, Q86UL8; [2]) is reported as “below the threshold”, the pKd (DLG1_1, Q12959; [2]) is reported as 3.58 and the pKd (GRIP1_7, Q9Y3R0; [2]) is reported as “below the threshold”. For the same binder, the pKd (APBA3_1, O96018; [2]) was “below the threshold”, the pKd (MPDZ_10, O75970; [2]) was “below the threshold” and the pKd (NHERF4_4, Q86UT5; [2]) was “below the threshold”. For the same binder, the pKd (PDZRN4_1, Q6ZMN7; [2]) was 3.94, the pKd (MAGI2_2, Q86UL8; [2]) was “below the threshold” and the pKd (Inadl_5, Q8NI35; [2]) was “below the threshold”. The pKd (DLG1_3, Q12959; [2]) was 3.51, the pKd (DLG1_2, Q12959; [2]) was 3.77 and the pKd (TJP3_3, O95049; [2]) was “below the threshold”. For the same binder, the pKd (SNTA1, Q13424; [2]) was 4.14, the pKd (RHPN1, Q8TCX5; [2]) was 4.41 and the pKd (LNX1_3, Q8TBB1; [2]) was “below the threshold”. The pKd (PTPN13_1, Q12923; [2]) was “below the threshold”, the pKd (APBA2_1, Q99767; [2]) was “below the threshold” and the pKd (MPDZ_12, O75970; [2]) was “below the threshold”. The pKd (MAGI1_2, Q96QZ7; [2]) was “below the threshold”, the pKd (CASK, O14936; [2]) was “below the threshold” and the pKd (DFNB31_2, Q9P202; [2]) was “below the threshold”. The pKd (SYNJ2BP, P57105; [2]) was 3.66, the pKd (GRIP2_7, Q9C0E4; [2]) was “below the threshold” and the pKd (NHERF3_1, Q5T2W1; [2]) was 4.43. It also gave a pKd (LRRC7, Q96NW7; [2]) of 3.49.

For QPRTWLQSPV [RTKN, Q9BST9], the pKd (MAGI2_4, Q86UL8; [3]) was “below the threshold”, the pKd (DLG1_1, Q12959; [3]) was 3.74 and the pKd (GRIP1_7, Q9Y3R0; [3]) was “below the threshold”. The pKd (APBA3_1, O96018; [3]) was “below the threshold”, the pKd (MPDZ_10, O75970; [3]) was 3.97 and the pKd (NHERF4_4, Q86UT5; [3]) was “below the threshold”. The pKd (PDZRN4_1, Q6ZMN7; [3]) was “below the threshold”, the pKd (MAGI2_2, Q86UL8; [3]) was 4.39 and the pKd (Inadl_5, Q8NI35; [3]) was “below the threshold”. For the same binder, the pKd (DLG1_3, Q12959; [3]) was 4.11, the pKd (DLG1_2, Q12959; [3]) was 4.3 and the pKd (TJP3_3, O95049; [3]) was “below the threshold”. The pKd (SNTA1, Q13424; [3]) was “below the threshold”, the pKd (RHPN1, Q8TCX5; [3]) was 3.7 and the pKd (LNX1_3, Q8TBB1; [3]) was “below the threshold”. The pKd (PTPN13_1, Q12923; [3]) was “below the threshold”, the pKd (APBA2_1, Q99767; [3]) was “below the threshold” and the pKd (MPDZ_12, O75970; [3]) was “below the threshold”. The pKd (MAGI1_2, Q96QZ7; [3]) was 4.83, the pKd (CASK, O14936; [3]) was “below the threshold” and the pKd (DFNB31_2, Q9P202; [3]) was “below the threshold”. The pKd (SYNJ2BP, P57105; [3]) was 5.2, the pKd (GRIP2_7, Q9C0E4; [3]) was “below the threshold” and the pKd (NHERF3_1, Q5T2W1; [3]) was 4.29. The pKd (LRRC7, Q96NW7; [3]) was 3.73.
